Molecular target: purified human dimeric IgA (dIgA) (human)
Test: ELISA, dIgA held on anti-IgA coated plates, detected with R/HpIgR, anti-secretory component and anti-mouse HRP

Substance: chimeric rabbit/human polymeric Ig receptor R/HpIgR (rabbit domain 1, human domains 2-5) (from UniProt P01833 1-638)
- lowest dIgA concentration tested, still detected: 31 ng/mL
